The record followed here is article PMC6876990 (2019).

The assay deals with T1, Smac peptide AVPIAQKSEKY (Homo sapiens).
T1 chain: AVPIAQKSEKY
Nature of the assay: ITC. (Isothermal titration calorimetry measures the heat released or taken up as one component is titrated into another.)

B1: WT-XIAP BIR3 241-356 (protein)
chain: SDAVSSDRNFPNSTNLPRNPSMADYEARIFTFGTWIYSVNKEQLARAGFYALGEGDKVKCFHCGGGLTDWKPSEDPWEQHAKWYPGCKYLLEQKGQEYINNIHLTHSLEECLVRTT
For the molecule B1, the Kd was 428 nM.

A word on the Kd: it is the equilibrium constant for the complex coming apart. Higher therefore signals lower affinity.
